Reference: patent publication US20250270304A1
Blank lines part the entries; values can stand above or below the binder they belong to.

Key:
Test in all cases: ELISA, coated antigen, OD450
[1] = molecular target: T1, Activin B (Homo sapiens (Human)) (UniProt P09529)
T1 sequence: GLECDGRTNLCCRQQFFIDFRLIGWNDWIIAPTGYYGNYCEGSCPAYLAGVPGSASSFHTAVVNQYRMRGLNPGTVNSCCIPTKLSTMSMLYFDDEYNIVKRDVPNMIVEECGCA

[2] = molecular target: T2, Inhibin A (Homo sapiens (Human)) (UniProt P05111)
T2 sequence 1: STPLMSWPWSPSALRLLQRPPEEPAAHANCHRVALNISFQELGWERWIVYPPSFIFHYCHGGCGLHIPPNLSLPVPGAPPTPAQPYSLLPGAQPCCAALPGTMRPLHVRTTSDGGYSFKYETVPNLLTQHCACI
T2 sequence 2: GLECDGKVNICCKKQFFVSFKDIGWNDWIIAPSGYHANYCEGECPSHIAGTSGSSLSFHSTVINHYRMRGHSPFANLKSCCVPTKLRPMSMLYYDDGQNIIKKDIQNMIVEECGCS

Mature Activin A (human) = Mature Activin A (human) (UniProt P08476)

fold-change of OD 450 over negative control (BSA) [1]: 1.17 fold | fold-change of OD 450 over negative control (BSA) [2]: 1.38 fold
B1: AB439 (antibody, IgG1, V domains shown)
VH: EVQLVQSGAEVKKPGASVKVSCKASGYTYTGYRISWVRQAPGQGLEWMGWIDPKSGRTNYAQKLQGRGTMTTDPSTSTAYMELRSLRSDDTAVYYCAREVKQWLVPGRGVYWFDPWGQGTLVTVSS
VL: ESALTQPASVSGSPGQSITISCTGTNIGLRSVSWYQQHPGKAPKLMIYDTNIRSSGVSNRFSGSKSGNTASLTISGLQAEDEADYYCSSYTSSSTDVFGGGTKLTVL

fold-change of OD 450 over negative control (BSA) (Mature Activin A (human)): 1.39 fold
B2: AB330 (antibody, IgG1, V domains shown)
VH: QVQLVQSGAEVKKPGASVKVSCKVSGYPSPATISWVRQAPGKGLEWMGWMNPKSGYTNYAQKFQGRVTMTEDTSTDTAYMELSSLKSEDTAVYYCATLHGSGLAFDIWGQGTMVTVSS
VL: DIQMTQSPSSVSASVGDRVTITCRASQDIKSDLAWYQQKPGKAPKLLIYRASARESGVPSRFSGSGSGTDFTLTISSLQPEDFANYYCQQYRSFPWSFGGGTKVEIK
